Measured values as given in patent US12180519B2, “Cocaine esterase mutant and use thereof” (Hangzhou Normal University, priority 2021, dated 2024).

Legend:
[1] = in vivo; cited from earlier work
[2] = High-activity CocE mutant accelerated BZE metabolism in vivo (rat blood BZE and BA by HPLC); parameters: species or system SD rats; details: for BZE metabolism in rats (in words): 0.2 or 1 mg/kg mutant i.v., then 2 mg/kg BZE i.v., FIGS. 3A and 3B
Description: Experimental male SD rats (200 g/rat) purchased from Laboratory Animal Center of Zhejiang Academy of Medical Sciences were raised in a constant-temperature and constant-humidity environment. The feeding and experimental application was carried out by following Guide for the Care and Use of Laboratory Animals.
Blood was collected from the femoral vein of rats using a blood collection needle and a heparin-treated capillary. Firstly, eight tubes of blood from the same rat, 75 μL in each tube, were added to 100 μL of 250 μM paraxon to inhibit the effect of endogenous metabolizing enzymes on BZE, and frozen at −80° C. After thawing, 19.7 μL of mixed solution containing 0, 4, 10, 20, 40, 60, 100 and 200 μM BA and BE standards, then subjected to vortex for 20 seconds, and then added with 150 μL of acetonitrile and subjected to vortex for 1 minutes, then added with 50 μL of 10% HClO4 and subjected to vortex for 1 minutes, centrifuged at 17,000 rcf for 15 minutes, and then centrifuged again after the supernatant was transferred. 250 μL of supernatant were taken out for HPLC analysis. The sample volume was 100 μL, and the HPLC experimental conditions were the same as those in Embodiment 3. The concentrations of BZE and BA in the final standard samples were 0, 0.2, 0.5, 1, 2, 3, 5 and 10 μM respectively.
There were 5 rats in each group. Firstly, 0.2 or 1 mg/kg of high-active CocE mutant or normal saline was injected into the tail vein of rats, and 2 mg/kg BZE was injected into the tail vein within 1 minute. After BZE injection, 75 μL of blood samples were taken at the 0th, 2nd, 5th, 10th, 30th, 60th, 90th and 120th minutes respectively, and 100 μL of 250 μM paraxon were added in each sample, and then frozen at −80° C. After thawing, the samples were subjected to vortex for 20 seconds, then added with 150 μL of acetonitrile and subjected to vortex for 1 minute, then added with 50 μL of 10% HClO4 and subjected to vortex for 1 minute, centrifuged at 17,000 g for 15 minutes, and then centrifuged again after the supernatant was transferred. 250 μL of supernatant were taken out for HPLC analysis. The sample volume was 100 μL. The BA and BZE concentrations in the blood of rats in each group at different time points were calculated according to the blood sample standard curve of the standards, so as to obtain the metabolism of BZE with or without the high-activity CocE mutant.

[3] = Enzyme activity analysis: in vitro catalytic reaction of CocE enzymes to substrate BZE (HPLC, Michaelis-Menten); format: biochemical; details: substrate BZE; for Km / kcat: 25° C., 0.1 M phosphate buffer pH 7.4
Source text: Firstly, an experimental method for detecting a substrate BZE and a product benzoic acid BA by HPLC was established. Both BZE and BA had strong ultraviolet absorption at 230 nm. In HPLC analysis, acetonitrile and 0.1% formic acid were used as mobile phases to separate BZE and BA by C18 liquid chromatography column. The absorption of BZE and BA at wavelength 230 nm was detected by an ultraviolet detector, and linear standard curves of BZE and BA were obtained. The activity of BZE reaction catalyzed by CocE was determined, and the reaction temperature was 25° C., with three repetitions in each group. An enzymatic reaction was started by 50 μL of substrate BZE solution with 50 μL of enzyme solution (diluted with 0.1 M phosphate buffer (pH 7.4)).
50 μL of 10% perchloric acid was added to stop the reaction, and then, 50 μL of acetonitrile was added, and the mixture was centrifuged at 12,000 rpm for 5 minutes. Then, the supernatant was diluted to an appropriate multiple and injected into […]. The peak time, peak areas and curves of BZE and BA were compared, and the residual BZE concentration and the BA concentration in the reaction sample were calculated. The kcat and KM of each mutant could be obtained by calculating the reaction rates of BA catalyzed by enzyme at different substrate concentrations, drawing a kinetic curve of the enzyme reaction with GraphPad Prism 8, and performing Michaelis-Menten kinetic analysis.

[4] = rats, 2 mg/kg BZE i.v. without mutant, second minute

Molecule | share of cocaine bio-converted by BChE and CE-2 to ecgonine methyl ester (EME) [1] | share of cocaine hydrolyzed by CE-1 in liver to benzoyllecgonine (BZE) [1] [%] | BA concentration in the blood [2, 4] | BZA concentration in the blood [2, 4] [µM] | RCE, ratio of catalytic efficiency of the mutant enzyme to BZE and that of the wildtype enzyme [3] | Km [3] [µM] | kcat [3] [min⁻¹] | BZE metabolism in rats (in words) [2]
COC(=O)[C@H]1[C@@H](OC(=O)c2ccccc2)C[C@@H]2CC[C@H]1N2C [cocaine] | about 40% | 45 |  |  |  |  |  | 
CN1[C@H]2CC[C@@H]1[C@@H](C(=O)O)[C@@H](OC(=O)c1ccccc1)C2 [BZE, benzoylecgonine, reference compound] |  |  | less than 0.5 μM | 15.8 |  |  |  | 
T172R/G173Q/L196C/I301C/V116K/A51L: cocaine esterase mutant of SEQ ID No. 1 with the named mutations (protein, UniProt Q9L9D7 1-574, looked up, variant T172R G173Q L196C I301C V116K A51L) Cocaine esterase: MVDGNYSVASNVMVPMRDGVRLAVDLYRPDADGPVPVLLVRNPYDKFDVFLWSTQSTNWLEFVRDGYAVVIQDTRGLFASEGEFVPHVDDEADAEDTLSWILEQAWCDGNVGMFGKSYLGVTQWQAAVSGVGGLKAIAPSMASADLYRAPWYGPGGALSVEALLGWSALIGRQLITSRSDARPEDAADFVQLAAICNDVAGAASVTPLAEQPLLGRLIPWVIDQVVDHPDNDESWQSISLFERLGGLATPALITAGWYDGFVGESLRTFVAVKDNADARLVVGPWSHSNLTGRNADRKFGCAATYPIQEATTMHKAFFDRHLRGETDALAGVPKVRLFVMGIDEWRDETDWPLPDTAYTPFYLGGSGAANTSTGGGTLSTSISGTESADTYLYDPADPVPSLGGTLLFHNGDNGPADQRPIHDRDDVLCYSTEVLTDPVEVTGTVSARLFVSSSAVDTDFTAKLVDVFPDGRAIALCDGIVRMRYRETLVNPTLIEAGEIYEVAIDMLATSNVFLPGHRIMVQVSSSNFPKYDRNSNTGGVIAREQLEEMCTAVNRIHRGPEHPSHIVLPIIKR |  |  |  |  | 536.5 | 27.8 | 873 | accelerating BZE metabolism
T172R/G173Q/L196C/I301C/V116K/A51V: cocaine esterase mutant of SEQ ID No. 1 with the named mutations (protein, UniProt Q9L9D7 1-574, looked up, variant T172R G173Q L196C I301C V116K A51V) Cocaine esterase: MVDGNYSVASNVMVPMRDGVRLAVDLYRPDADGPVPVLLVRNPYDKFDVFVWSTQSTNWLEFVRDGYAVVIQDTRGLFASEGEFVPHVDDEADAEDTLSWILEQAWCDGNVGMFGKSYLGVTQWQAAVSGVGGLKAIAPSMASADLYRAPWYGPGGALSVEALLGWSALIGRQLITSRSDARPEDAADFVQLAAICNDVAGAASVTPLAEQPLLGRLIPWVIDQVVDHPDNDESWQSISLFERLGGLATPALITAGWYDGFVGESLRTFVAVKDNADARLVVGPWSHSNLTGRNADRKFGCAATYPIQEATTMHKAFFDRHLRGETDALAGVPKVRLFVMGIDEWRDETDWPLPDTAYTPFYLGGSGAANTSTGGGTLSTSISGTESADTYLYDPADPVPSLGGTLLFHNGDNGPADQRPIHDRDDVLCYSTEVLTDPVEVTGTVSARLFVSSSAVDTDFTAKLVDVFPDGRAIALCDGIVRMRYRETLVNPTLIEAGEIYEVAIDMLATSNVFLPGHRIMVQVSSSNFPKYDRNSNTGGVIAREQLEEMCTAVNRIHRGPEHPSHIVLPIIKR |  |  |  |  | 137.6 | 86.2 | 693.2 | accelerating BZE metabolism
T172R/G173Q: CocE T172R/G173Q mutant that completed the clinical test II phase of cocaine detoxification (protein, listed as Rhodococcus sp.) MVDGNYSVASNVMVPMRDGVRLAVDLYRPDADGPVPVLLVRNPYDKFDVFAWSTQSTNWLEFVRDGYAVVIQDTRGLFASEGEFVPHVDDEADAEDTLSWILEQAWCDGNVGMFGVSYLGVTQWQAAVSGVGGLKAIAPSMASADLYRAPWYGPGGALSVEALLGWSALIGRQLITSRSDARPEDAADFVQLAAICNDVAGAASVTPLAEQPLLGRLIPWVIDQVVDHPDNDESWQSISLFERLGGLATPALITAGWYDGFVGESLRTFVAVKDNADARLVVGPWSHSNLTGRNADRKFGCAATYPIQEATTMHKAFFDRHLRGETDALAGVPKVRLFVMGIDEWRDETDWPLPDTAYTPFYLGGSGAANTSTGGGTLSTSISGTESADTYLYDPADPVPSLGGTLLFHNGDNGPADQRPIHDRDDVLCYSTEVLTDPVEVTGTVSARLFVSSSAVDTDFTAKLVDVFPDGRAIALCDGIVRMRYRETLVNPTLIEAGEIYEVAIDMLATSNVFLPGHRIMVQVSSSNFPKYDRNSNTGGVIAREQLEEMCTAVNRIHRGPEHPSHIVLPIIKR |  |  |  |  | 1.6 | 4360 | 418.7 | 
T172R/G173Q/V116K: cocaine esterase mutant of SEQ ID No. 1 with the named mutations (protein, UniProt Q9L9D7 1-574, looked up, variant T172R G173Q V116K) Cocaine esterase: MVDGNYSVASNVMVPMRDGVRLAVDLYRPDADGPVPVLLVRNPYDKFDVFAWSTQSTNWLEFVRDGYAVVIQDTRGLFASEGEFVPHVDDEADAEDTLSWILEQAWCDGNVGMFGKSYLGVTQWQAAVSGVGGLKAIAPSMASADLYRAPWYGPGGALSVEALLGWSALIGRQLITSRSDARPEDAADFVQLAAILNDVAGAASVTPLAEQPLLGRLIPWVIDQVVDHPDNDESWQSISLFERLGGLATPALITAGWYDGFVGESLRTFVAVKDNADARLVVGPWSHSNLTGRNADRKFGIAATYPIQEATTMHKAFFDRHLRGETDALAGVPKVRLFVMGIDEWRDETDWPLPDTAYTPFYLGGSGAANTSTGGGTLSTSISGTESADTYLYDPADPVPSLGGTLLFHNGDNGPADQRPIHDRDDVLCYSTEVLTDPVEVTGTVSARLFVSSSAVDTDFTAKLVDVFPDGRAIALCDGIVRMRYRETLVNPTLIEAGEIYEVAIDMLATSNVFLPGHRIMVQVSSSNFPKYDRNSNTGGVIAREQLEEMCTAVNRIHRGPEHPSHIVLPIIKR |  |  |  |  | 110.8 | 65.6 | 425.2 | 
